Paper PMC5358875 (Journal of the American Chemical Society, 2017)
Blank lines part the entries; values can stand above or below the molecule they belong to. Ends that are not written are not given here. * marks the point of attachment. 5‑TAMRA = CN(C)c1ccc2c(-c3ccc(C(=O)*)cc3C(=O)[O-])c3ccc(N(C)C)cc3[o+]c2c1; Ahx = NCCCCCC(=O)O

B1: TNKS2 ARC4 (488–649) (domain or fragment, human, UniProt Q9H2K2 488-649, looked up)
chain: GNSEADRQLLEAAKAGDVETVKKLCTVQSVNCRDIEGRQSTPLHFAAGYNRVSVVEYLLQHGADVHAKDKGGLVPLHNACSYGHYEVAELLVKHGAVVNVADLWKFTPLHEAAAKGKYEICKLLLQHGADPTKKNRDGNTPLDLVKDGDTDIQDLLRGDAAL

Legend:
TNKS1 ARC2-3 = molecular target: T1, TNKS1 ARC2-3 (Homo sapiens, UniProt O95271); assay: Isothermal titration calorimetry, TNKS1 ARC2-3; assay type: binding; conditions: unlabeled peptides and Axin proteins
T1 construct: His6 (cleaved yes); made in house; host or cells: E. coli C41(DE3)
T1 sequence (O95271 315-662): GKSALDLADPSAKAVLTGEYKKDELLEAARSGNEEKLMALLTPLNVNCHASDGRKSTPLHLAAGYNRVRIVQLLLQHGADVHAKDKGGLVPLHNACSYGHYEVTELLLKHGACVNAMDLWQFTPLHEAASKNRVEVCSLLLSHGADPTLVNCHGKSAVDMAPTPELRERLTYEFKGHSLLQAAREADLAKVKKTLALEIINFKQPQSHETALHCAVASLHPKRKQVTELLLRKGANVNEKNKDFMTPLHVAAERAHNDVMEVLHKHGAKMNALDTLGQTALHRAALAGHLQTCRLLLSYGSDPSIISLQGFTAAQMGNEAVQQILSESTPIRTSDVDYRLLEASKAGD
Experimental: (§1) All ITC experiments were performed on a MicroCal iTC200 (GE Healthcare) at 25 °C. TNKS2 ARC4 (488–649), TNKS1 ARC2–3 (315–662), and Axin1 fragments were dialyzed overnight in PBS and 0.5 mM TCEP. Unlabeled peptides were used in the experiments. The peptide was diluted from the stock solution using the same dialysis buffer, and the effect of buffer dilution was accounted for when preparing TNKS samples. TNKS2 ARC4 (160–280 μM) or TNKS1 ARC2–3 (60–150 μM) was titrated into the sample cell containing the peptide (5–15 μM) or Axin1 fragments (8–12 μM) with an initial injection of 0.2 μL over 0.4 s followed by 19 injections of 2 μL over 4 s with a spacing of 60 s, except for TNKS2 ARC4 and Axin1 fragments for which the spacing was 70 s. Control experiments were performed using the same settings as above except that the cell was filled with dialysis buffer. Data were fitted with nonlinear regression using a one-site binding model from Origin 7.0 (MicroCal, Inc.).[90]

TNKS2 ARC4 [1] = molecular target: T2, TNKS2 ARC4 (Homo sapiens, UniProt Q9H2K2); assay: Isothermal titration calorimetry, TNKS2 ARC4; assay type: binding; conditions: unlabeled peptides and Axin proteins
T2 construct: GST (cleaved yes); made in house; host or cells: E. coli C41(DE3)
T2 sequence (Q9H2K2 488-649): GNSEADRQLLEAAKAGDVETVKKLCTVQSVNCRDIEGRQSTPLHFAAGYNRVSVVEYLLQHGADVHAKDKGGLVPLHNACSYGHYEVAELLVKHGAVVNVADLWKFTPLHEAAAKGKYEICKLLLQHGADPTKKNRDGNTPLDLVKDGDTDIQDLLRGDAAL
Experimental: as §1

[2] = system: Wnt-activated HEK 293T cells; assay: TOPFLASH dual-luciferase reporter assay; assay type: cell-based; conditions: unlabeled peptides
Experimental: A dual-luciferase reporter (DLR) assay in Wnt-activated HEK 293T cells was used to determine the ability of the peptides to modulate β-catenin levels and suppress Wnt transcription. […] Treatment of HEK 293T cells with an increasing concentration of unlabeled peptide cp4n2m3c-Antp (containing the penetratin sequence on the linker) led to a dose-dependent decrease in Wnt pathway reporter activity with an IC50 around 50 μM (Figure 8). […] Moreover, treatment with non-cell-penetrating peptides pep1 or cp4n2m3c had no effect on Wnt reporter activity, nor did treatment with cp4n1m3c-Antp (a cell-penetrating version of the non-binding peptide cp4n1m3c) (Table S2), thereby satisfying these specificity controls.
HEK 293T were grown in Dulbecco’s Modified Eagles Medium (DMEM) supplemented with 10% fetal calf serum. Wnt pathway activity was induced by treating cells with 20 mM LiCl (or KCl as control) or conditioned media obtained from L-cells expressing Wnt3A for 6 h. […]
For TOPFLASH reporter assays, 100 ng of TOPFLASH plasmid and 10 ng of CMV-Renilla plasmid (as internal control) were used to transfect cells in 24-well plates. […] Relative luciferase values were obtained from triplicate samples (from two independent experiments) by dividing the firefly luciferase values (from TOPFLASH) by the Renilla luciferase values (from CMV-renilla), and standard deviations were calculated.

AspN protease = molecular target: T3, AspN protease (Elizabethkingia meningoseptica, UniProt Q47899); assay: in vitro; conditions: isolated enzyme
T3 sequence (Q47899 92-443): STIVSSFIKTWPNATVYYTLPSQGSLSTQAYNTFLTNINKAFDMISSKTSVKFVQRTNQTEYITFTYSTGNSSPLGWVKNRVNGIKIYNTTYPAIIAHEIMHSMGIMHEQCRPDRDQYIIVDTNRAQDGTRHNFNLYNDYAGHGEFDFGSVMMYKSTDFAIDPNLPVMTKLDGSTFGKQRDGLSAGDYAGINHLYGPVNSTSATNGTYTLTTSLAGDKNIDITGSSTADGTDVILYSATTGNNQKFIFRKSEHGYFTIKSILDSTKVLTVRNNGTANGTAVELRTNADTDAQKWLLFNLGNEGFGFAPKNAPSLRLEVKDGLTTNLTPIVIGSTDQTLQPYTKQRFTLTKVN

TNKS2 ARC4 [3] = molecular target: T2, TNKS2 ARC4; assay: Direct fluorescence polarization, TNKS2 ARC4; assay type: binding; conditions: TAMRA-labeled peptides; n.d. = not detectable; read-out: Kd TNKS2 ARC4 (Direct FP)
Experimental: Fluorescence polarization (FP) assays were performed in 96-well half area black microplates (Corning) on a CLARIOstar microplate reader (BMG labtech) using excitation filter 540–20 nm, dichroic mirror LP 566 nm, and emission filter 590–20 nm. All peptides were dissolved in water as stock solutions. For direct FP assays, the stock concentrations of the TAMRA-labeled peptides were determined based on the 5-TAMRA absorbance at 556 nm (extinction coefficient ε = 89,000 M^–1 cm^–1) measured on a NanoDrop 2000 (Thermo Scientific) and verified by amino acid analysis (Department of Biochemistry, University of Cambridge). TNKS2 ARC4 (488–649) or TNKS1 ARC2–3 (315–662) was diluted 2-fold serially in the assay buffer (50 mM HEPES pH 7.5, 300 mM NaCl, 2 mM DTT, 0.05% (v/v) Tween 20) for a 12-point titration curve in triplicate. The diluted TAMRA-labeled peptide (20 nM, 50 μL) was mixed with the serially diluted TNKS2 ARC4 or TNKS1 ARC2–3 (40–0 μM, 50 μL) in each well and incubated for 30 min at 25 °C before the measurement. Data were analyzed on GraphPad Prism 5.0, and the dissociation constant, Kd, was determined using the following equation assuming the ratio between the concentration of the bound and that of the total TAMRA-labeled peptide is proportional to the fluorescence polarization [drawing 1] where FP is the fluorescence polarization, B is the minimum FP, T is the maximum FP, L0 is the total concentration of TAMRA-labeled peptide, P0 is the total concentration of protein, and Kd is the dissociation constant.

[4] = molecular target: T4, human tankyrase 2 ankyrin repeat cluster 4 (TNKS2 ARC4, residues 488-649) (human, UniProt Q9H2K2 488-649); assay: fluorescence polarisation; direct: TNKS2 ARC4 or TNKS1 ARC2-3 diluted 2-fold serially (40-0 uM, 50 uL) and mixed with TAMRA-labeled peptide (20 nM, 50 uL); 50 mM HEPES pH 7.5, 300 mM NaCl, 2 mM DTT, 0.05% Tween 20; 30 min, 25 C; conditions: both partners purified
T4 sequence (looked up): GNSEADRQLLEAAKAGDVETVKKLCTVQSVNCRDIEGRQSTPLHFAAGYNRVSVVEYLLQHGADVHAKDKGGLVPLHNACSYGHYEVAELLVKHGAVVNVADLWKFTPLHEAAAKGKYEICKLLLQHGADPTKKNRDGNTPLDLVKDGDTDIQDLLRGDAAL

[5] = molecular target: T5, human tankyrase 1 ankyrin repeat clusters 2-3 (TNKS1 ARC2-3, residues 315-662) (human, UniProt O95271 315-662); assay: as above; conditions: both partners purified
T5 sequence (looked up): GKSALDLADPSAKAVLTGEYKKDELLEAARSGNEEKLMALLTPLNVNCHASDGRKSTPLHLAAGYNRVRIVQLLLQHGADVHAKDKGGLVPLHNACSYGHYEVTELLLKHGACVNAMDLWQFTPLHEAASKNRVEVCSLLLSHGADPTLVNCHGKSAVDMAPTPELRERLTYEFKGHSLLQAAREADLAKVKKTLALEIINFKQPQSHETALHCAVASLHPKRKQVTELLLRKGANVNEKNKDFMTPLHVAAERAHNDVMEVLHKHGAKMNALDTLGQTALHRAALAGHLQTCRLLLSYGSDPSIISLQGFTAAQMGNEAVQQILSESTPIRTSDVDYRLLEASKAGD

TNKS2 ARC4 (488–649) [6] = molecular target: B1; assay: fluorescence polarisation; competitive FP; T-pep1 (20 nM) with TNKS2 ARC4 (3 μM) as tracer, unlabeled peptide serially diluted; PBS, 0.05% Tween 20; 30 min at 25 °C; conditions: both partners purified
TNKS2 ARC4 (488–649) [7] = molecular target: B1; assay: pull-down; GST-Axin1 1–80 on glutathione beads incubated with TNKS2 ARC4 (89 μM), washed, then incubated 0.5 h at room temperature with unlabeled peptide (0–200 μM); wash buffer 50 mM Tris·HCl pH 8.0, 500 mM NaCl, 2 mM DTT; SDS-PAGE, Coomassie, densitometry; conditions: both partners purified
[8] = molecular target: T5, human tankyrase 1 ankyrin repeat …; assay: fluorescence polarisation; competition: Axin1 fragment diluted 2-fold serially against TAMRA-labeled pep1 (20 nM) with TNKS1 ARC2-3 (1.2 uM); PBS, 0.05% Tween 20; 30 min, 25 C; conditions: both partners purified
[9] = molecular target: T4, human tankyrase 2 ankyrin repeat …; assay: fluorescence polarisation; competition: unlabeled peptide or Axin1 fragment diluted 2-fold serially against TAMRA-labeled pep1 (20 nM) with TNKS2 ARC4 (3 uM); PBS, 0.05% Tween 20; 30 min, 25 C; conditions: both partners purified
[10] = molecular target: T4, human tankyrase 2 ankyrin repeat …; assay: ITC; TNKS2 ARC4 (160-280 uM) or TNKS1 ARC2-3 (60-150 uM) titrated into the cell with unlabeled peptide (5-15 uM) or Axin1 fragment (8-12 uM); PBS, 0.5 mM TCEP; 25 C; one-site model; stoichiometry = TNKS per peptide or Axin1; conditions: both partners purified
[11] = molecular target: T5, human tankyrase 1 ankyrin repeat …; assay: as above; conditions: both partners purified
TNKS2 ARC4 (488–649) [12] = molecular target: B1; assay: fluorescence polarisation; direct FP; TAMRA-labeled peptide (20 nM, 50 μL) mixed with serially diluted TNKS2 ARC4 (40–0 μM, 50 μL); 50 mM HEPES pH 7.5, 300 mM NaCl, 2 mM DTT, 0.05% Tween 20; 30 min at 25 °C; conditions: both partners purified
human Axin1_1–80 = human Axin1_1–80 (human, UniProt O15169 1-80); assay: ITC; TNKS2 ARC4 (160–280 μM) or TNKS1 ARC2–3 (60–150 μM) titrated into the cell holding peptide (5–15 μM) or Axin1 fragment (8–12 μM); PBS, 0.5 mM TCEP; 25 °C; one-site model; conditions: both partners purified
T-cp4n2m3c = assay: fluorescence polarisation; direct FP; TAMRA-labeled peptide (20 nM, 50 μL) mixed with serially diluted TNKS2 ARC4 (40–0 μM, 50 μL); 50 mM HEPES pH 7.5, 300 mM NaCl, 2 mM DTT, 0.05% Tween 20; 30 min at 25 °C

Molecule: CN(C)c1ccc2c(c1)Oc1cc(N(C)C)ccc1C21OC(=O)c2cc(C(=O)NCCCCCC(=O)N[C@@H](CCCNC(=N)N)C(=O)N[C@@H](CCC(=O)O)C(=O)N[C@H]3CCn4cc(nn4)CCCc4cn(nn4)CC[C@@H](C(=O)N[C@@H](CCC(=O)O)C(N)=O)NC(=O)CNC(=O)[C@H](CC(=O)O)NC(=O)CNC3=O)ccc21 [T-cp4n2m3]
- remaining at 4.5 h, 400 μM (AspN protease): ~100%
- Kd (TNKS2 ARC4 [3]): 600 ± 10 nM

Molecule: {5‑TAMRA-Ahx}-REAGDGEE [T-pep1 (TAMRA-Ahx-REAGDGEE), listing 1 of 2 here]
- Kd [4]: 780 ± 60 nM
- Kd [5]: 190 ± 4 nM

Molecule: {5‑TAMRA-Ahx}-REAGDGEE [T-pep1 (TAMRA-Ahx-REAGDGEE), listing 2 of 2 here]
- Kd (TNKS2 ARC4 (488–649) [12]): 800 ± 100 nM

Molecule: B1
- stoichiometry N (human Axin1_1–80): 1
- fold higher affinity than T-pep1 (T-cp4n2m3c): 2 fold

Second part, led by results:

- Stoichiometry (ITC), TNKS1 ARC2-3 (TNKS1 ARC2-3): 0.9 ± 0.01
- Kd (TNKS1 ARC2-3; 25 °C, read-out: Kd (nM) to TNKS1 ARC2-3 (ITC)): 290 ± 30 nM
- Stoichiometry (ITC), TNKS2 ARC4 (TNKS2 ARC4 [1]): 1.0 ± 0.004
Molecule: Ac-REAGDGEE-NH2 [pep1]
- effect on Wnt reporter activity [2]: no effect

- Kd (TNKS2 ARC4 (488–649) [6]): 1200 ± 100 nM
- IC50 (TNKS2 ARC4 (488–649) [7]): ~40 µM
Molecule: Ac-REAGDGEE [pep1]

- Kd [8]: 560 ± 40 nM
- Kd [9]: 3.68 ± 0.18 µM
- Kd [10]: 2120 ± 160 nM
- stoichiometry N [10]: 1 ± 0.02
- Kd [11]: 830 ± 80 nM
- stoichiometry N [11]: 1 ± 0.01
Molecule: MNIQEQGFPLDLGASFTEDAPRPPVPGEEGELVSTDPRPASYS (domain or fragment, UniProt O15169 1-43, looked up) [human Axin1 residues 1-43]
